Reference: US20190353654A1

B1: CXCR4^QTY (receptor, not shown: small tags and cut ends)
chain: MEGISIYTSDNYTEEMGSGDYDSMKEPCFREENANFNKTYQPTTYSTTYQTGTTGQGQTTQTMGYQKKQRSMTDKYRQHQSTADQQYTTTQPYWATDATANWYFGNFQCKATHTTYTTQQYSSTQTQAYTSQDRYLAIVHATNSQRPRKQQAEKTTYTGTWTPAQQQTTPDYTYANVSEADDRYICDRFYPNDLWTTTYQYQHTMTGQTQPGTTTQSCYCTTTSKLSHSKGHQKRKALKTTTTQTQAYYACWQPYYTGTSTDSFILLEIIKQGCEFENTVHKWTSTTEAQAYYHCCQQPTQYAYQGAKYKTSAQHAQTSTSRGSSQKTQSKGKRGGHSSTSTESESSSFHSS
modifications: Receptor labelled with NT647 dye (RED-NHS, on amines) for MST; sites not specified
B2: CCR5^QTY (receptor, not shown: small tags and cut ends)
chain: MDYQVSSPIYDINYYTSEPCQKINVKQIAARQQPPQYSQTFTYGFTGNMQTTQTQINCKRLKSMTDIYLQNQAISDQYYQQTTPYWAHYAAAQWDFGNTMCQQQTGQYFTGYYSGTYYTTQQTTDRYLAVVHAVFALKARTTTYGTTTSTTTWTTATYASQPGTTYTRSQKEGLHYTCSSHFPYSQYQFWKNFQTLKITIQGQVQPQQTMVTCYSGTQKTLLRCRNEKKRHRAVRQTFTTMTTYYQYWAPYNTTQQLNTFQEFFGLNNCSSSNRLDQAMQVTETQGMTHCCTNPTIYAYVGEKFRNYLLVFFQKHIAKRFCKCCSIFQQEAPERASSVYTRSTGEQEISVGL
modifications: Receptor labelled with NT647 dye (RED-NHS, on amines) for MST; sites not specified
B3: CXCR7^QTY (receptor, not shown: small tags and cut ends)
chain: MDLHLFDYSEPGNFSDISWPCNSSDCIVVDTVMCPNMPNKSTQQYTQSYTYTYTYTTGMTANSVVVWVNIQAKTTGYDTHCYTQNQATADQWTTQTTPTWTTSLVQHNQWPMGELTCKTTHQTYSTNQYGSTYYQTCMSVDRYLSITYFTNTPSSRKKMVRRTTCTQTWQQAYCTSQPDTYYQKTVTSASNNETYCRSFYPEHSIKEWLIGMEQTSTTQGYATPYSTTATYYYQLARAISASSDQEKHSSRKTTYSYTTTYQTCWQPYHTATQLDIFSILHYIPFTCRLEHALFTAQHTTQCQSQTHCCTNPTQYSYTNRNYRYELMKAFIFKYSAKTGLTKLIDASRVSETEYSALEQSTK
modifications: The receptor was labelled with NT647 (RED-NHS dye on lysines, positions not defined) for MST. The letters do not carry this.

Columns and labels:
[1] = target: CXCL12 24-88 (UniProt P48061); test: MicroScale Thermophoresis, labeled receptor, ligand titrated, in buffer (1x PBS, 5 mM DTT)
[2] = target: CXCL12 24-88 (UniProt P48061); test: MicroScale Thermophoresis, earlier independent purification and refolding from E. coli inclusion bodies
[3] = target: CXCL12 24-88 (UniProt P48061); test: MicroScale Thermophoresis, later independent purification and refolding from E. coli inclusion bodies
[4] = target: CXCL12 24-88 (UniProt P48061); test: MicroScale Thermophoresis, labeled receptor, ligand titrated, in 50% human serum
[5] = target: CCL5 26-91 (UniProt P13501); test: MicroScale Thermophoresis, earlier independent purification from SF9 cells
[6] = target: CCL5 26-91 (UniProt P13501); test: MicroScale Thermophoresis, labeled receptor, ligand titrated, in buffer (1x PBS, 5 mM DTT)
[7] = target: CCL5 26-91 (UniProt P13501); test: MicroScale Thermophoresis, labeled receptor, ligand titrated, in 50% human serum

Chain of CXCL12 24-88 (P48061 24-88 limits assumed, form in doubt): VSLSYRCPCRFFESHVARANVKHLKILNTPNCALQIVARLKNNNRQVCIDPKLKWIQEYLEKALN
Chain of CCL5 26-91 (P13501 26-91 limits assumed, form in doubt): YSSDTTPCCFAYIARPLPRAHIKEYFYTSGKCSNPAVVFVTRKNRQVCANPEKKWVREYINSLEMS

Row | Binder | Kd [1] [nM] | Kd [2] [nM] | Kd [3] [nM] | Kd [4] [nM] | Kd [5] [nM] | Kd [6] [nM] | Kd [7] [nM]
1 | B1 | 11.2 | 17 | 13 | 44.7 |  |  | 
2 | B2 |  |  |  |  | 42 | 33.9 | 45.9
3 | B3 | 2.2 |  |  | 6.6 |  |  | 
